Assay results published in US12441811B2, “Compositions and methods for treating serpin B13 disorders” (REGENTS OF THE UNIVERSITY OF MINNESOTA, priority 2019, dated 2025).

What was measured:
[1] = tested on: catL; conditions: previously shown by the applicant; cited from earlier work
[2] = tested on: pancreatic islets; conditions: cited from earlier work
[3] = tested on: catL; assay: catL activity in vivo with activity-based probe ProSense 680; design: species or system mouse
Method: CatL has been implicated as a serpinB13 protease target. To examine the consequences of inhibiting serpinB13 using a mAb (clone B29), the catalytic activity of catL was measured. […] To measure catL activity in vivo, the activity-based probe, ProSense 680, was used. […] This increase was limited to the pancreas in wild-type Balb/c mice and was not observed in the liver, where serpinB13 is not expressed, or in the pancreas of catL-deficient Balb/c mice.

[4] = tested on: Notch1 receptor; assay: Examination of Notch1 receptor in embryonic pancreas (Western blot, flow cytometry, qPCR); assay type: cell-based, mouse; conditions: for levels of active Notch intracellular domain (aNICD): embryonic pancreas, antibody vs control Ab
Method: Staining for flow cytometry. BD LSRFortessa X-20, LSR-II and FACSCanto-II were used for FACS analysis. Positive populations of cells were gated and counted using FlowJo ver.10 software. For the islet cells isolated from adult mice, intracellular staining to detect glucagon and insulin was used to count single-positive as well as double-negative cells. In the cells isolated from embryonic pancreas explants, intracellular staining was performed to detect Ngn3, CK19, and active Notch, and extracellular staining was used to detect the extracellular Notch domain, EpCAM, CD31 and CD45.
Western blotting. Pancreatic tissues were processed from E16.5 embryos as single samples and directly used for lysis. Embryonic pancreas explants from E12.5 embryos were cultured in vitro with anti-serpinB13 mAb (or control Ab) for 24 or 48 hours, then, three explant cultures were combined and lysed. The samples were washed two times in ice-cold PBS and lysed with gentle pipetting for 10 minutes with additional tap-vortexing for 15 minutes in RIPA buffer containing Halt protease inhibitors (cat. no. 1862209, Thermo Fisher Scientific). Equal amounts of protein in each sample were run under reducing conditions on Bis-Tris BOLT gradient gel (4-12%) or NUPAGE Tris-acetate gradient gels (4-12%) (both from Thermo Fisher Scientific), and transferred onto […] nitrocellulose or activated PVDF membranes. The membranes were blocked with 5% skim milk and stained with primary and secondary antibodies, as indicated. The Western blots were developed with SuperSignal West Pico Chemiluminescent Substrate or West Femto Maximum Sensitivity Substrate (cat. nos. […] and […], respectively; both from Thermo Scientific), and scanned using the ChemiDoc™ MP Imaging System (Bio-Rad, Hercules, […], USA).
Quantitative real-time PCR. Total RNA from embryonic pancreases was extracted using the RNeasy UCP Micro kit (cat. no. 73934; Qiagen, Hilden, Germany) to measure expression of the Notch1 gene. One hundred to […] of the total RNA per group was reverse transcribed to cDNA using the iScript cDNA Synthesis Kit (cat. no. 1708891; Bio-Rad). Quantitative PCR assays were performed on an Applied Biosystems QuantStudio 3 real-time PCR system using cDNA and the Kapa Sybr Fast reagent (cat. no. 0795959100; Roche). Actin-R was used as a reference gene. The primer sequence for Notch1 was as follows: forward—5′[…]3′ and reverse—5′ […]3′.

B1: B29: mouse monoclonal antibody to serpin B13, clone B29; heavy chain SEQ ID NO:14, kappa light chain SEQ ID NO:16 (antibody, V domains shown)
VH: QIQLVQSGPELKKPGETVKISCKASGYTFTTYGMSWVKQAPGKGLKWMGWINTYSGMPTYADDFKGRFAFSLETSATTAYLQINNLKNEDTATYFCARPLLGLDYWGQGTTLTVSS
VL: DIVMTQTPLSLSVTIGQPASISCKSSQSLLHSDGKTFLNWFLQRPGQSPKLLIYLVSKLESGIPDRFSGSGSGTDFTLKISRVEVEDLGVYYCLQHTHFPLTFGAGTKLEIK
inhibitory properties of serpinB13 [1]: blocked
recovery from diabetes ([2]; coadministration with a suboptimal dose of anti-CD3 mAb): accelerated
Reg gene expression ([2]; injection): enhanced
beta cell mass ([2]; injection): increase
beta cell proliferation ([2]; injection): enhanced
generation of pancreatic islets ([2]; injection): ~80 pancreatic islets per animal
islet inflammation ([2]; mice, mAb alone): decreased
increase in catL activity in the pancreas of catL-deficient mice ([3]; catL-deficient Balb/c mice): not observed
increase in catL activity in the liver ([3]; liver, where serpinB13 is not expressed): not observed
catL activity ([3]; summary statement, setting not specified): augmented
catL activity in the intact pancreas ([3]; wild-type Balb/c mice, after injection of mAb, ProSense 680): significant increase
~60 kD degradation fragments of Notch1 ([4]; E12.5 explants treated 48 hours): induction
levels of active Notch intracellular domain (aNICD) [4]: diminished
levels of active Notch intracellular domain (aNICD) ([4]; listed as mAb): markedly reduced levels
expression of the ectodomain of the Notch1 receptor ([4]; embryonic pancreatic tissue, in vivo and in vitro exposure, 24 and 48 hours): time-dependent reduced expression
transcriptional level of Notch1 ([4]; quantitative PCR): relatively intact
